{"source": "paper PMC3366460", "target": "HsUbcH5b(C85S)~Ub oxyester-linked conjugate (human | mammalian) (UniProt P62837)", "assay": "pull-down"}
{"substance": "HsUbcH5b(C85S)~Ub oxyester-linked conjugate (from UniProt P62837 1-147; P0CG48 1-76) (complex)", "values": [{"measurement": "stoichiometry N", "result": 4}]}
